Where “and” joins values, the source holds several entries; their conditions need not be identical. Equal entries are not always repeated.
Columns and labels:
[1] = biological target: the molecule itself; experiment: Western blot
[2] = biological target: the molecule itself; experiment: Western blot of lysates

Protein	stoichiometry N [1]	stoichiometry N [2]
Rab6a GTPase (natural protein, human (endogenous in LNCaP), UniProt P20340 1-208, looked up) MSTGGDFGNPLRKFKLVFLGEQSVGKTSLITRFMYDSFDNTYQATIGIDFLSKTMYLEDRTVRLQLWDTAGQERFRSLIPSYIRDSTVAVVVYDITNVNSFQQTTKWIDDVRTERGSDVIIMLVGNKTDLADKRQVSIEEGERKAKELNVMFIETSAKAGYNVKQLFRRVAAALPGMESTQDRSREDMIDIKLEKPQEQPVSEGGCSC	2	
GRASP65 (natural protein) not shown		2 and 4
